Source: patent publication US20020009436A1, “Methods and compositions for inhibiting adhesion by microorganisms” (priority 1999, published 2002)

What was measured:
[1] = system: "trypsin-like" protease activity of P. gingivalis; assay: Trypsin-like protease activity of P. gingivalis cells (BAPNA); format: cell-based; details: asparaginase 20 U/ml, polyphenol oxidase 80 U/ml
Procedure: Cell suspensions of P. gingivalis were adjusted up to 1.3 OD at 540 nm in PB. A 100 μl volume of 700 μg/ml BAPNA (benzoyl-DL-arginine-p-nitroanilide) was added to 3 ml of cell suspension. The cells were incubated at 37° C. for different periods of time. The blank contained BAPNA and buffer in the same proportion as P. gingivalis cell suspension. Tubes were centrifuged and the subsequent supernatant was diluted 1:3 and read at 405 nm. Asparaginase and polyphenol oxidase were 20 and 80 U/ml, respectively.

[2] = system: Salmonella enteritidis; assay: Hemagglutination of horse red blood cells by Salmonella enteritidis; format: cell-based; set-up: key: + Hemagglutination; − No hemagglutination; details: 2 hr incubation, polyphenol oxidase 70 U/ml, asparaginase 65 U/ml
Procedure: Three Salmonella enteritidis clinical isolate strains, SE 79, SE 89-8312 and SE S1-072-Z were used. The bacterial strains were grown statically in brain heart infusion (BHI) broth for 48 h at 37° C. The cells were harvested by centrifugation and washed twice in 10 mM phosphate buffer (PB) pH 7.5. The final bacterial pellet was then suspended in the same buffer to the desired density.
Bacterial suspensions OD 1.0 (5 ml each) were mixed in the absence and presence of polyphenol oxidase (70 U/ml) or asparaginase (65 U/ml) and incubated statically at 37° C. for 2 h. The cells were then centrifuged and washed 2 times with PB (pH 7.5) and were suspended at a final volume 125 μl. These cells were subjected to hemagglutination tests.
For hemagglutination studies, red blood cells from horse were used. The red blood cells were washed with PBS (pH 7.5) by low speed centrifugation 10 min and suspended to 2% in the same buffer.

[3] = system: A. naeslundii ATCC 12104 (adhesin) / P. intermedia (receptor); assay: Coaggregation A. naeslundii ATCC 12104 / P. intermedia; details: P. intermedia (receptor) enzyme treated; polyphenol oxidase 90 U/ml, asparaginase 20 U/ml
Procedure: S. sanguis 10556, A. naeslundii strains 12104 and T14V and E. coli were grown static cultures in Todd-Hewitt broth (BBL Microbiology Systems, Cockeysville, Md.). P. gingivalis W50, A. actinomycetemcomitans and C. ochracea were grown in brain heart infusion broth (BBL). F. nucleatum 22586 and P. intermedia 25611 were grown in modified Schaedler broth (BBL). All oral species except S. sanguis 10556 were incubated at 37° C. as static cultures under an anaerobic atmosphere containing H2, CO2 and N2(10:10:80) with GasPaks (BBL). S. sanguis was incubated at 37° C. as static cultures in 5% CO2.
Bacteria were harvested in the mid to late exponential growth phase by centrifugation (10,000×g for 10 min at 4° C.). The cells were washed twice in coaggregation buffer (30 mM 3-[N-morpholino]propanesulfonic acid (MOPS), pH 7.0) and adjusted to an optical density of 0.6-0.8 at 540 nm (1-cm path). […]
Coaggregation was assessed by turbidity changes. Following mixing of the cells for 10 s on a Vortex mixer, absorbance readings were made every 30 min. The percentage of coaggregation was calculated from the following formula: Percent coaggregation=[OD540(A)+OD540(B)−OD540(A+B)]/(OD540(A)+OD540(B)), where A is the control containing cells of one strain, B is the control containing cells of the other strain, and A+B is the reaction mixture containing both cells. […]

[4] = system: S. sanguis; assay: Adhesion of S. sanguis to saliva-coated hydroxylapatite beads; format: cell-based, Streptococcus sanguis; details: polyphenol oxidase 100 μg/ml or 150 units; asparaginase 20 U/ml; 1 hr at 37° C.
Procedure: S. sanguis was grown and handled according to procedures known to those of skill in the art. Hydroxylapatite beads were coated with saliva and washed. Adhesion was measured using [^3H]thymidine labeled streptococci. Various cell densities were run but using a single 40 mg weight of beads.
The “cooperative” adhesion (loss of upward slope on the Scatchard plot) was absent following both enzyme treatments. Incubation of cells with enzymes was 1 hr at 37° C.

[5] = system: P-fimbriated E. coli; assay: Flow cytometric adhesion of P-fimbriated E. coli to UECs; format: cell-based
Excerpt: Methods for handling polyphenol oxidase and asparaginase and for observing adhesion by microorganisms were generally as described in the previous Examples with variations to adapt these methods to epithelial cells.
The bacteria were labeled intracellularly with the fluorescein dye CFDA-SE. Median fluorescence intensity of the UECs was taken as a measure of the number of bacteria attached to them. In the Figures below, median fluorescence is converted to % adhesion using control conditions (UEC+untreated bacteria) as 100%.

[6] = system: P. gingivalis; assay: Hemagglutination assay of periodontopathogens, P. gingivalis; format: cell-based, Porphyromonas gingivalis; set-up: key: + Hemagglutination; − No hemagglutination; details: sheep blood, polyphenol oxidase 90 U/ml or asparaginase 20 U/ml, 90 min
Procedure: The hemagglutinations were carried out in 96 microwell (Nunc) plates in which 50 μl of 1% suspension of sheep blood and 50 μl of serially diluted cells suspension in phosphate buffered (10 mM Na2HPO4, 10 mM KH2PO4, 150 mM NaCl, 3 mM KCl) were added. The cells were adjusted at 1.4 OD at 540 nm. All the strains were treated in NaCl-free buffer with polyphenol oxidase (90 U/ml) or asparaginase (20 U/ml) for 90 min at 37° C. before hemagglutination.

[7] = system: S. sobrinus 6715; assay: Disc-diffusion growth assay, S. sobrinus; details: 500 μg/ml and 1.0 mg/ml, 18 h
Procedure: Standard disc-diffusion assays were performed with 500 μg/ml and 1.0 mg/ml of polyphenol oxidase. Duplicate series of ten-fold dilutions (to 10^−8) of late exponential phase cultures of S. sobrinus were made in PBS. Eighty μl of each concentration of polyphenol oxidase was pipetted onto 13 mm sterile filter paper discs. The discs were applied to the center of agar plates previously inoculated with lawns of S. sobrinus. Plates were incubated for 18 h and examined visually for any effect of polyphenol oxidase on growth of the bacteria.
Duplicate series of ten-fold dilutions (to 10^−8) of late exponential phase cultures of S. sobrinus were made in PBS. Eighty , μl of each concentration of asparaginase was pipetted onto 13 mm sterile filter paper discs. The discs were applied to the center of agar plates previously inoculated with lawns of S. sobrinus. Plates were incubated for 18 h and examined visually for any effect of asparaginase on growth of the bacteria.

[8] = system: Bacillus cereus; assay: Growth inhibition of Bacillus cereus; format: cell-based
[9] = system: S. aureus; assay: Fibronectin binding assay, S. aureus; format: cell-based; details: polyphenol oxidase 80 U/ml, asparaginase 20 U/ml
Procedure: Wells were filled with human serum fibronectin (50 μg/ml) diluted in carbonate buffer (50 mM Na2CO3—NaHCO3, pH 9.5 overnight). Controls were coated with 1% BSA. The wells were washed three times with PBS and incubated with PBS-Tween (0.5% Tween 20 and 0.05% NaN3) 1 h at 37° C. After attachment, the wells were washed three times with PBS-Tween and allowed to dry. Subsequent assays were as described hereinabove.

B1: asparaginase: enzyme that catalyzes hydrolysis of the side chain amide group of asparagine to a carboxyl group; E. coli asparaginase (protein, UniProt P00805 23-348, looked up)
L-asparaginase 2: LPNITILATGGTIAGGGDSATKSNYTVGKVGVENLVNAVPQLKDIANVKGEQVVNIGSQDMNDNVWLTLAKKINTDCDKTDGFVITHGTDTMEETAYFLDLTVKCDKPVVMVGAMRPSTSMSADGPFNLYNAVVTAADKASANRGVLVVMNDTVLDGRDVTKTNTTDVATFKSVNYGPLGYIHNGKIDYQRTPARKHTSDTPFDVSKLNELPKVGIVYNYANASDLPAKALVDAGYDGIVSAGVGNGNLYKSVFDTLATAAKTGTAVVRSSRVPTGATTQDAEVDDAKYGFVASGTLNPQKARVLLQLALTQTKDPQQIQQIFNQY
**Q.** What does the source list for B1?
**A.** trypsin-like activity (BAPNA hydrolysis) [1]: diminished; Hemagglutination ([2]; SE 79, dilution 1/1): +; Hemagglutination ([2]; SE 79, dilution 1/2): −; Hemagglutination ([2]; SE 79, dilution 1/4): −; Hemagglutination ([2]; SE 79, dilution 1/8): −; Hemagglutination ([2]; SE 79, dilution 1/16): −; Hemagglutination ([2]; SE 79, dilution 1/32): −; Hemagglutination ([2]; SE 79, dilution 1/64): −; Hemagglutination ([2]; SE 79, dilution 1/128): −; Hemagglutination ([2]; SE 89-8312, dilution 1/1): −; Hemagglutination ([2]; SE 89-8312, dilution 1/2): −; Hemagglutination ([2]; SE 89-8312, dilution 1/4): −; Hemagglutination ([2]; SE 89-8312, dilution 1/8): −; Hemagglutination ([2]; SE 89-8312, dilution 1/16): −; Hemagglutination ([2]; SE 89-8312, dilution 1/32): −; Hemagglutination ([2]; SE 89-8312, dilution 1/64): −; Hemagglutination ([2]; SE 89-8312, dilution 1/128): −; Hemagglutination ([2]; SES1-0072-Z, dilution 1/1): +; Hemagglutination ([2]; SES1-0072-Z, dilution 1/2): −; Hemagglutination ([2]; SES1-0072-Z, dilution 1/4): −; Hemagglutination ([2]; SES1-0072-Z, dilution 1/8): −; Hemagglutination ([2]; SES1-0072-Z, dilution 1/16): −; Hemagglutination ([2]; SES1-0072-Z, dilution 1/32): −; Hemagglutination ([2]; SES1-0072-Z, dilution 1/64): −; Hemagglutination ([2]; SES1-0072-Z, dilution 1/128): −; Inhibition % of coaggregation [3]: 23%; adhesion to hydroxylapatite [4]: reduced adhesion; decrease in adhesion to UECs ([5]; asparaginase 2.5 units/ml): 45%; decrease in adhesion to UECs ([5]; asparaginase 5 units/ml): 55%; decrease in adhesion to UECs ([5]; asparaginase 25 units/ml): 85%; adhesion to UECs ([5]; bacteria first incubated with globoside, then polyphenol oxidase 282 units/ml or asparaginase 5 units/ml): nearly the same as that of untreated bacteria; Hemagglutination ([6]; dilution 1/2): −; Hemagglutination ([6]; dilution 1/8): −; Hemagglutination ([6]; dilution 1/16): −; Hemagglutination ([6]; dilution 1/32): −; Hemagglutination ([6]; dilution 1/64): −; Hemagglutination ([6]; dilution 1/128): −; Hemagglutination ([6]; dilution 1/256): −; Hemagglutination ([6]; dilution 1/512): −; inhibition of growth of S. sobrinus [7]: did not significantly inhibit growth; inhibition of growth of Bacillus cereus [8]: did not significantly inhibit growth; Absorbance (fibronectin) ([9]; S. aureus Cowan, untreated 0.33): 0.18; Absorbance (fibronectin) ([9]; S. aureus Wood, untreated 0.42): 0.35
